In EP4574844A1 (Numab Therapeutics AG, dated 2025):

Legend:
recombinant human LILRB2 [1] = target: T1, recombinant human LILRB2 (human, UniProt Q8N423 22-460, limits assumed); test: SPR, LILRB2 immobilised, scFv as analyte
T1 construct: also called ILT4

[2] = target: T2, human LILRB2 on the cell surface (human, UniProt Q8N423 22-597); test: flow cytometry, CHO cells expressing LILRB2; competitor HLA-G tetramer
T2 construct: whole, on cells; also called CHO K1 cells expressing human LILRB2; LILRB2 on HMDMs
T2 sequence (Q8N423 22-597): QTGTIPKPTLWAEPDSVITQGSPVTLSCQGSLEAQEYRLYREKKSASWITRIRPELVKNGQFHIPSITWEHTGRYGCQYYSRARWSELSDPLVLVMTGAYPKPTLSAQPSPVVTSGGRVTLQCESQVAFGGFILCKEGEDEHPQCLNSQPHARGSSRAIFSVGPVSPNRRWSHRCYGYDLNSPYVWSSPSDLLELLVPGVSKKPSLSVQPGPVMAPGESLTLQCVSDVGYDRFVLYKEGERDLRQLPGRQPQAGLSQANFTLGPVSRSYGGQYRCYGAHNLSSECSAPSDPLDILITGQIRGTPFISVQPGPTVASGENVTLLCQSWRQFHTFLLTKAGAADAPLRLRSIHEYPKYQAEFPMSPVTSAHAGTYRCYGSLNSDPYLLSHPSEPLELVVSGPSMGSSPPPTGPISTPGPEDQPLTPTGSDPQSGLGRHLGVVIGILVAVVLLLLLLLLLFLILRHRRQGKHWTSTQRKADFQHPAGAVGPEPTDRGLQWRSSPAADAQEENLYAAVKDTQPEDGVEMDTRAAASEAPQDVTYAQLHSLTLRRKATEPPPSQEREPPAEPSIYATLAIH

[3] = target: T2, human LILRB2 on the cell surface; test: flow cytometry, CHO K1 cells expressing human LILRB2
[4] = target: T2, human LILRB2 on the cell surface; test: flow cytometry, CHO cells expressing LILRB2; competitor HLA-G tetramer; reference PRO2518
[5] = target: T2, human LILRB2 on the cell surface; test: flow cytometry, CHO cells expressing LILRB2; competitor HLA-A0301 dextramer
[6] = target: T3, human CD47 on the cell surface (human, UniProt Q08722 19-323); test: cell-based or functional assay
[7] = target: T3, human CD47 on the cell surface; test: cell-based or functional assay; remark: listed apart in the source
[8] = target: T3, human CD47 on the cell surface; test: cell-based or functional assay; remark: listed apart in the source
recombinant human LILRB2 [9] = target: T1, recombinant human LILRB2; test: SPR, antibody captured by anti-framework IgG, antigen as analyte (without avidity)
[10] = target: T2, human LILRB2 on the cell surface; test: cell-based or functional assay
[11] = target: T2, human LILRB2 on the cell surface; test: cell-based or functional assay; remark: listed apart in the source
recombinant human CD47 = recombinant human CD47 (human, UniProt Q08722 19-139, limits assumed); test: SPR, antigen immobilised, antibody as analyte
recombinant human PDL1 = target: T4, recombinant human PDL1 (human, UniProt Q9NZQ7 19-238, limits assumed); test: SPR, antigen immobilised, antibody as analyte
T4 construct: SPR antigen; also called CD274; B7-H1

[12] = target: human PD-L1 on the cell surface (human, UniProt Q9NZQ7 19-290); test: cell-based or functional assay
[13] = target: T5, recombinant cynomolgus CD47 (cynomolgus monkey, UniProt A0A2K5X523 19-139); test: SPR, antigen immobilised, antibody as analyte
T5 construct: also called cynom; CD47

[14] = target: T6, recombinant cynomolgus PDL1 (cynomolgus monkey, UniProt G7PSE7 19-238); test: SPR, antigen immobilised, antibody as analyte
T6 construct: also called cynom; PDL1
T6 sequence (G7PSE7 entry or part of it): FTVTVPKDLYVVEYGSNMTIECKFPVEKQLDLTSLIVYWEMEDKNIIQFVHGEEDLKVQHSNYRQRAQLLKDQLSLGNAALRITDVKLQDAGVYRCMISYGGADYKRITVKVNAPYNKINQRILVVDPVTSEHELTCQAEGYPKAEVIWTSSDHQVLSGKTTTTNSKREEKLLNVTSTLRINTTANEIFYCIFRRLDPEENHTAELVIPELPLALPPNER

T1 sequence (Q8N423 22-460 limits assumed): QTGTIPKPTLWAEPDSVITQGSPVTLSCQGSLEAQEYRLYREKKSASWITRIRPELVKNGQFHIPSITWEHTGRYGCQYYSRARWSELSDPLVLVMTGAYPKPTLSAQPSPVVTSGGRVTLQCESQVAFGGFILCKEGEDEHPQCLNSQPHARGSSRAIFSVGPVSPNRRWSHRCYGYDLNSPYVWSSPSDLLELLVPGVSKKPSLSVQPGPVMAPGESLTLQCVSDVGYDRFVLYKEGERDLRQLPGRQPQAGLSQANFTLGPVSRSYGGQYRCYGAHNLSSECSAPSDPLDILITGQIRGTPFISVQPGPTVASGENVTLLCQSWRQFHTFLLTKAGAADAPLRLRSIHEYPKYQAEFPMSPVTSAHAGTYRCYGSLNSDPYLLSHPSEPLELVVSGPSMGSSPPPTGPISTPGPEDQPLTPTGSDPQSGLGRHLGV

Row | Binder | CD47 driven EC50 [nM], phagocytosis of A375 cells [6] | CD47 driven EC50 [nM], phagocytosis of Nalm6 cells [7] | CD47 driven EC50 [nM], phagocytosis of H292 cells [8] | CD47 driven EC50 [nM], phagocytosis of RBCs [8] | Kd (recombinant human LILRB2 [9]) | koff (recombinant human LILRB2 [9]) | kon (recombinant human LILRB2 [9]) | CD86 EC50 [nM], re-polarization of M2 macrophages [10] | CD163 EC50 [nM], re-polarization of M2 macrophages [10] | CD206 EC50 [nM], re-polarization of M2 macrophages [10] | IL-1β EC50 [nM], LPS-driven cytokine secretion [11] | IL-6 EC50 [nM], LPS-driven cytokine secretion [11] | TNF-α EC50 [nM], LPS-driven cytokine secretion [11] | Kd (recombinant human CD47) | koff (recombinant human CD47) | kon (recombinant human CD47) | Kd (recombinant human PDL1) | koff (recombinant human PDL1) | kon (recombinant human PDL1) | PD-L1 driven EC50 [nM], phagocytosis of H292 cells [12] | also measured
1 | PRO3744 (scFv, anti-LILRB2 scFv; also called 68-18-E11-sc07) scFv: DVQMTQSPSSLSASVGDRVTITCQASQSIGSNLAWYQQKPGKPPKLLIYKGGTLESGVPSRFSGSGSGTDFTLTISSLQPEDFATYYCQSTAGSSRSGNYGYVFGCGTKVTVLGGGGGSGGGGSGGGGSGGGGSQQLVESGGGLVQPGGSLRLSCAASGFSFTNNYYMCWVRQAPGKCLEWIACMLVGAWGNTYYASWANGRFTISKDNSKNTVYLQMNSLRAEDSAVYFCARARDYTWTLGGDPETSGFNLWGQGTLVKVSS | – | – | – | – | – | – | – | – | – | – | – | – | – | – | – | – | – | – | – | – | Kd (recombinant human LILRB2 [1]): 0.148 nM; koff (recombinant human LILRB2 [1]): 0.000114 s⁻¹; kon (recombinant human LILRB2 [1]): 771000 M⁻¹ s⁻¹; IC50 [2]: 0.973 nM; EC50 [3]: 0.881 nM; Rel. max. inhibition % (rel. to J-19) [4]: 99.1%; IC50 [5]: 0.893 nM
2 | PRO3851 (bispecific antibody, human IgG1, kappa, L234A L235A) heavy 1: not shown heavy 2: QVQLQESGGGLVQPGGSLRLSCAASAYTISRNSMGWFRQAPGKGLEGVAAIESDGSTSYSDSVKGRFTISLDNSKNTLYLEMNSLRAEDTAVYYCAAPKVGLGPRTALGHLAFMTLPALNYWGQGTLVTVSSGGGGSGGGGSGGGGSGGGGSQVQLQESGGGLVQPGGSLRLSCAASAYTISRNSMGWFRQAPGKGLEGVAAIESDGSTSYSDSVKGRFTISLDNSKNTLYLEMNSLRAEDTAVYYCAAPKVGLGPRTALGHLAFMTLPALNYWGQGTLVTVSSDKTHTCPPCPAPEAAGGPSVFLFPPKPKDTLMISRTPEVTCVVVDVSHEDPEVKFNWYVDGVEVHNAKTKPREEQYNSTYRVVSVLTVLHQDWLNGKEYKCKVSNKALPAPIEKTISKAKGQPREPQVCTLPPSRDELTKNQVSLSCAVKGFYPSDIAVEWESNGQPENNYKTTPPVLDSDGSFFLVSKLTVDKSRWQQGNVFSCSVMHEALHNHYTQKSLSLSPG light: DIQMTQSPSSVSASVGDRVTITCRASQGISRWLAWYQQKPGKAPKLLIYAASSLQSGVPSRFSGSGSGTDFTLTISSLQPEDFATYYCQQTVSFPITFGGGTKVEIKRTVAAPSVFIFPPSDEQLKSGTASVVCLLNNFYPREAKVQWKVDNALQSGNSQESVTEQDSKDSTYSLSSTLTLSKADYEKHKVYACEVTHQGLSSPVTKSFNRGEC | 0.9 nM | 0.99 nM | 1.82 nM | 3 nM | – | – | – | – | – | – | – | – | – | – | – | – | – | – | – | – | –
3 | PRO4672 (antibody, trispecific anti-PDL1 x CD47 x LILRB2, (scFv)2-Fc-(scFv)2, 37-20-B03-based PDL1-BD) chain 1: DVQMTQSPSSLSASVGDRVTITCQASQSISSWVSWYQQKPGKPPKLLIYRGGYLESGVPSRFSASGSGTDFTLTISSLQPEDFATYYCQSTDSSTYGGAFGCGTKVTVLGGGGGSGGGGSGGGGSGGGGSQQVVESGGGLVQPGGSLRLSCAVSGIDLNSYAMTWVRQAPGKCLEWIGYIGSASSTYYASWASGRFTISKDNSKNTVYLQMNSLRAEDSAVYFCARGSTYINIWGQGTLVKVSSEPKSSDKTHTCPPCPAPELLGGPSVFLFPPKPKDTLMISRTPEVTCVVVDVSHEDPEVKFNWYVDGVEVHNAKTKPREEQYNSTYRVVSVLTVLHQDWLNGKEYKCKVSNKALPAPIEKTISKAKGQPREPQVYTLPPCREEMTKNQVSLSCAVKGFYPSDIAVEWESNGQPENNYKTTPPVLDSDGSFFLVSKLTVDKSRWQQGNVFSCSVMHEALHNHYTQKSLSLSPGKGGGGSGGGGSDVQMTQSPSSLSASVGDRVTITCQASQSIGSNLAWYQQKPGKPPKLLIYKGGTLESGVPSRFSGSGSGTDFTLTISSLQPEDFATYYCQSTAGSSRSGNYGYVFGCGTKVTVLGGGGGSGGGGSGGGGSGGGGSQQLVESGGGLVQPGGSLRLSCAASGFSFTNNYYMCWVRQAPGKCLEWIACMLVGAWGNTYYASWANGRFTISKDNSKNTVYLQMNSLRAEDSAVYFCARARDYTWTLGGDPETSGFNLWGQGTLVKVSS chain 2: not shown | – | 15.3 nM | 8.32 nM | 39.4 nM | 0.37 nM | 8.9e-05 s⁻¹ | 240000 M⁻¹ s⁻¹ | 0.079 nM | 0.067 nM | 0.12 nM | 0.096 nM | 0.078 nM | 0.123 nM | 57.2 nM | 0.0256 s⁻¹ | 448000 M⁻¹ s⁻¹ | 0.12 nM | 0.000126 s⁻¹ | 1.05e+06 M⁻¹ s⁻¹ | 0.32 nM | –

Continued, in another order:

Row | CD47 driven EC50 [nM], phagocytosis of A375 cells [6] | CD47 driven EC50 [nM], phagocytosis of Nalm6 cells [7] | CD47 driven EC50 [nM], phagocytosis of H292 cells [8] | CD47 driven EC50 [nM], phagocytosis of RBCs [8] | Kd (recombinant human LILRB2 [9]) | koff (recombinant human LILRB2 [9]) | kon (recombinant human LILRB2 [9]) | CD86 EC50 [nM], re-polarization of M2 macrophages [10] | CD163 EC50 [nM], re-polarization of M2 macrophages [10] | CD206 EC50 [nM], re-polarization of M2 macrophages [10] | IL-1β EC50 [nM], LPS-driven cytokine secretion [11] | IL-6 EC50 [nM], LPS-driven cytokine secretion [11] | TNF-α EC50 [nM], LPS-driven cytokine secretion [11] | Kd (recombinant human CD47) | koff (recombinant human CD47) | kon (recombinant human CD47) | Kd (recombinant human PDL1) | koff (recombinant human PDL1) | kon (recombinant human PDL1) | PD-L1 driven EC50 [nM], phagocytosis of H292 cells [12] | Binder | also measured
4 | 12.1 nM | – | 10.9 nM | 44.6 nM | 0.35 nM | 9.2e-05 s⁻¹ | 260000 M⁻¹ s⁻¹ | 0.085 nM | 0.058 nM | 0.128 nM | 0.0705 nM | 0.063 nM | 0.141 nM | 21 nM | 0.011 s⁻¹ | 510000 M⁻¹ s⁻¹ | 0.016 nM | 3.3e-05 s⁻¹ | 2.2e+06 M⁻¹ s⁻¹ | 0.19 nM | PRO5055 (antibody, human IgG1, kappa, trispecific anti-PDL1 x CD47 x LILRB2; PDL1-BD as Fab; also called PRO4687 with 33-03-G02-based PDL1-BD) DVQMTQSPSSLSASVGDRVTITCQASQSISSWVSWYQQKPGKPPKLLIYRGGYLESGVPSRFSASGSGTDFTLTISSLQPEDFATYYCQSTDSSTYGGAFGCGTKVTVLGGGGGSGGGGSGGGGSGGGGSQQVVESGGGLVQPGGSLRLSCAVSGIDLNSYAMTWVRQAPGKCLEWIGYIGSASSTYYASWASGRFTISKDNSKNTVYLQMNSLRAEDSAVYFCARGSTYINIWGQGTLVKVSSEPKSSDKTHTCPPCPAPELLGGPSVFLFPPKPKDTLMISRTPEVTCVVVDVSHEDPEVKFNWYVDGVEVHNAKTKPREEQYNSTYRVVSVLTVLHQDWLNGKEYKCKVSNKALPAPIEKTISKAKGQPREPQVYTLPPCREEMTKNQVSLSCAVKGFYPSDIAVEWESNGQPENNYKTTPPVLDSDGSFFLVSKLTVDKSRWQQGNVFSCSVMHEALHNHYTQKSLSLSPGKGGGGSGGGGSDVQMTQSPSSLSASVGDRVTITCQASQSIGSNLAWYQQKPGKPPKLLIYKGGTLESGVPSRFSGSGSGTDFTLTISSLQPEDFATYYCQSTAGSSRSGNYGYVFGCGTKVTVLGGGGGSGGGGSGGGGSGGGGSQQLVESGGGLVQPGGSLRLSCAASGFSFTNNYYMCWVRQAPGKCLEWIACMLVGAWGNTYYASWANGRFTISKDNSKNTVYLQMNSLRAEDSAVYFCARARDYTWTLGGDPETSGFNLWGQGTLVKVSS heavy: not shown light: DIQMTQSPSSLSASVGDRVTITCQASQSINDYLAWYQQKPGKAPKLLIYKGGTLASGVPSRFSGSGSGTDFTLTISSLQPEDFATYYCQQGYIITDIDNVFGQGTKVEIKRTVAAPSVFIFPPSDEQLKSGTASVVCLLNNFYPREAKVQWKVDNALQSGNSQESVTEQDSKDSTYSLSSTLTLSKADYEKHKVYACEVTHQGLSSPVTKSFNRGEC | Kd [13]: 21 nM; Kd [14]: 0.0084 nM
5 | 19.3 nM | – | 10.9 nM | 39.8 nM | 0.19 nM | 5.4e-05 s⁻¹ | 290000 M⁻¹ s⁻¹ | 0.082 nM | 0.073 nM | 0.134 nM | 0.082 nM | 0.077 nM | 0.117 nM | 34 nM | 0.022 s⁻¹ | 660000 M⁻¹ s⁻¹ | 0.013 nM | 2.9e-05 s⁻¹ | 2.3e+06 M⁻¹ s⁻¹ | 0.2 nM | PRO5052 (antibody, trispecific anti-PDL1 x CD47 x LILRB2, (scFv)2-Fc-(scFv)2; also called PRO4672 with 33-03-G02-based PDL1-BD) chain 1: DVQMTQSPSSLSASVGDRVTITCQASQSISSWVSWYQQKPGKPPKLLIYRGGYLESGVPSRFSASGSGTDFTLTISSLQPEDFATYYCQSTDSSTYGGAFGCGTKVTVLGGGGGSGGGGSGGGGSGGGGSQQVVESGGGLVQPGGSLRLSCAVSGIDLNSYAMTWVRQAPGKCLEWIGYIGSASSTYYASWASGRFTISKDNSKNTVYLQMNSLRAEDSAVYFCARGSTYINIWGQGTLVKVSSEPKSSDKTHTCPPCPAPELLGGPSVFLFPPKPKDTLMISRTPEVTCVVVDVSHEDPEVKFNWYVDGVEVHNAKTKPREEQYNSTYRVVSVLTVLHQDWLNGKEYKCKVSNKALPAPIEKTISKAKGQPREPQVYTLPPCREEMTKNQVSLSCAVKGFYPSDIAVEWESNGQPENNYKTTPPVLDSDGSFFLVSKLTVDKSRWQQGNVFSCSVMHEALHNHYTQKSLSLSPGKGGGGSGGGGSDVQMTQSPSSLSASVGDRVTITCQASQSIGSNLAWYQQKPGKPPKLLIYKGGTLESGVPSRFSGSGSGTDFTLTISSLQPEDFATYYCQSTAGSSRSGNYGYVFGCGTKVTVLGGGGGSGGGGSGGGGSGGGGSQQLVESGGGLVQPGGSLRLSCAASGFSFTNNYYMCWVRQAPGKCLEWIACMLVGAWGNTYYASWANGRFTISKDNSKNTVYLQMNSLRAEDSAVYFCARARDYTWTLGGDPETSGFNLWGQGTLVKVSS chain 2: not shown | Kd [13]: 32 nM; Kd [14]: 0.012 nM
